Each block holds one binder with its values, some of them ahead of it.
Tests used:
[1] = target: T1, Human LILRB1 on transiently transfected HEK293-6E cells (human, UniProt Q8NHL6 24-650); assay: flow cytometry, transiently transfected HEK293-6E cells
T1 construct: whole, on cells; also called hLILRB1
Method: To determine that the anti-LILRB2 antibodies specifically bind to LILRB2 and not other LILRB and LILRA family members, a cross-reactivity assay was performed. Cross-reactivity of the LILRB2 antibodies to other LILRB proteins was assessed by antibody binding to transiently transfected HEK293-6E cells, measured by flow cytometry. Binding was evaluated to HEK293-6E cells transiently transfected with human LILRB-1, -2, -3, -4, and 5 plasmids (Origene, Nos. RC219949, RC217935, RC211228, RC220932, RC206516) or to cells transiently transfected with human LILRA-1, -2, -4, -5, and -6 plasmids (Origene, Nos. RC210808, RC205626, RC220452, RC212310 RC212965). […] Murine primary antibodies to LILRA and LILRB targets and corresponding isotype controls were used to confirm specific binding of all targets tested (R&D Systems) while an AF647 F(ab′)₂ fragment goat anti-mouse antibody (Jackson ImmunoResearch, No. 115-606-062) was used for the detection of bound positive control antibodies. No binding of B2A-IgG4 or B2A-IgG1 to LILRB-1, -3, -4, or -5 was observed, and no binding of either antibody to LILRA-1, -2, -4, -5, or -6 was observed, confirming specificity of these antibodies.

[2] = target: T2, Human LILRA5 on transiently transfected HEK293-6E cells (human, UniProt A6NI73 42-299); assay: as above
T2 construct: whole, on cells; also called hLILRA5
T2 sequence (A6NI73 42-299): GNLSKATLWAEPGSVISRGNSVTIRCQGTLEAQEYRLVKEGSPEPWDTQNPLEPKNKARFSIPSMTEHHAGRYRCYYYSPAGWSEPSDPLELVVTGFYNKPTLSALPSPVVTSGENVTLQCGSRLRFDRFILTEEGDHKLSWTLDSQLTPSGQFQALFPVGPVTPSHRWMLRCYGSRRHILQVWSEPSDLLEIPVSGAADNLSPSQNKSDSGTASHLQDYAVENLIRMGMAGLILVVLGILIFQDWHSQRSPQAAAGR
Procedure, shortened: (§1)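 Antibody binding measured by flow cytometry on HEK293-6E cells transiently transfected with individual human LILRA or LILRB plasmids. Murine anti-LILRA/LILRB antibodies with isotype controls confirmed target expression, detected with AF647 goat anti-mouse F(ab′)₂.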

[3] = target: T3, Human LILRA4 on transiently transfected HEK293-6E cells (human, UniProt P59901 24-499); assay: as above
T3 construct: whole, on cells; also called hLILRA4
T3 sequence (P59901 24-499): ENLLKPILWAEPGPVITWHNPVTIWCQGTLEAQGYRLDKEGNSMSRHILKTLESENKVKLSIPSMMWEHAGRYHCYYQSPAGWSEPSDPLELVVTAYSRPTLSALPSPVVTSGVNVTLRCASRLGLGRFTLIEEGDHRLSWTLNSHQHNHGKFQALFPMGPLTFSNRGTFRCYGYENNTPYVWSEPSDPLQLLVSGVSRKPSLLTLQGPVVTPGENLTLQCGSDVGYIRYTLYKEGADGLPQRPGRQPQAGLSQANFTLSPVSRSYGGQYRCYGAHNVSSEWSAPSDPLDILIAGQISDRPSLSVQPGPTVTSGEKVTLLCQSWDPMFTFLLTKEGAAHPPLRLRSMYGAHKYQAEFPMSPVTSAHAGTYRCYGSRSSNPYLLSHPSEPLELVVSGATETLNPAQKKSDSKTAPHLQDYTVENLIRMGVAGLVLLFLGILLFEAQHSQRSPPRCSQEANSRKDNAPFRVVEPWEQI
Procedure, shortened: as §1

[4] = target: T4, Human LILRB4 on transiently transfected HEK293-6E cells (human, UniProt Q8NHJ6 22-448); assay: as above
T4 construct: whole, on cells; also called hLILRB4
Procedure, shortened: as §1

[5] = target: T5, Human LILRB2 on transiently transfected HEK293-6E cells (human, UniProt Q8N423 22-597); assay: as above
T5 construct: whole, on cells; also called hLILRB2
T5 sequence (Q8N423 22-597): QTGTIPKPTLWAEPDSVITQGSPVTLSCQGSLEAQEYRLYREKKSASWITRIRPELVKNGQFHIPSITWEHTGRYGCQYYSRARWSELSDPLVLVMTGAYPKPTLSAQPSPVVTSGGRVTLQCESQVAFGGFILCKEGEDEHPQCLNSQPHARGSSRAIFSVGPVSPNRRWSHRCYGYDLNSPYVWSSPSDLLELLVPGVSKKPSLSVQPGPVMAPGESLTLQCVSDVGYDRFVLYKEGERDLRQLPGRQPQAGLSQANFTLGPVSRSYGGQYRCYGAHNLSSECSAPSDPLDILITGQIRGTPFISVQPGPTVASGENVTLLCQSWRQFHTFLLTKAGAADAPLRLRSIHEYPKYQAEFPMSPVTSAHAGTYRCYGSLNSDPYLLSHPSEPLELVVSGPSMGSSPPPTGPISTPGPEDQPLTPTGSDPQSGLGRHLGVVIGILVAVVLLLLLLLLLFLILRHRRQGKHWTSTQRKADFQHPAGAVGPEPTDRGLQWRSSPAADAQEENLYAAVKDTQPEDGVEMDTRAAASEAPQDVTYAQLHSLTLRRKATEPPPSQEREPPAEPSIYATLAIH
Procedure, shortened: as §1

[6] = target: T6, Human LILRB5 on transiently transfected HEK293-6E cells (human, UniProt O75023 24-590); assay: as above
T6 construct: whole, on cells; also called hLILRB5
T6 sequence (O75023 24-590): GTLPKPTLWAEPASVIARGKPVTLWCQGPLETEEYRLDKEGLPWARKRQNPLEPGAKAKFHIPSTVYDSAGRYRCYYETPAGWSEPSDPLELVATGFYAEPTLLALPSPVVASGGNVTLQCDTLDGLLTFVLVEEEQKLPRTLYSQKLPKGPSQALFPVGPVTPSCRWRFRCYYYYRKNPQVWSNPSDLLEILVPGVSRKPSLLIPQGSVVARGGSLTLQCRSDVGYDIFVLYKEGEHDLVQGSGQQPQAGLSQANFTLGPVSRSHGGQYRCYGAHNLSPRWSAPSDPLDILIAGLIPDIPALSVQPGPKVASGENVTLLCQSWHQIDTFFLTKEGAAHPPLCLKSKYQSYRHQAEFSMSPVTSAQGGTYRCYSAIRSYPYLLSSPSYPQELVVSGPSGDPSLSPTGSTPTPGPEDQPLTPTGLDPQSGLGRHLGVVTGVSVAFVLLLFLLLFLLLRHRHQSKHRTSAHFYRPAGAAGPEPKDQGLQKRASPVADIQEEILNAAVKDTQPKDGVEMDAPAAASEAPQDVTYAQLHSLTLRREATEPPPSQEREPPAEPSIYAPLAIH
Procedure, shortened: as §1

[7] = target: T7, Human LILRA1 on transiently transfected HEK293-6E cells (human, UniProt O75019 17-489); assay: as above
T7 construct: whole, on cells; also called hLILRA1
T7 sequence (O75019 17-489): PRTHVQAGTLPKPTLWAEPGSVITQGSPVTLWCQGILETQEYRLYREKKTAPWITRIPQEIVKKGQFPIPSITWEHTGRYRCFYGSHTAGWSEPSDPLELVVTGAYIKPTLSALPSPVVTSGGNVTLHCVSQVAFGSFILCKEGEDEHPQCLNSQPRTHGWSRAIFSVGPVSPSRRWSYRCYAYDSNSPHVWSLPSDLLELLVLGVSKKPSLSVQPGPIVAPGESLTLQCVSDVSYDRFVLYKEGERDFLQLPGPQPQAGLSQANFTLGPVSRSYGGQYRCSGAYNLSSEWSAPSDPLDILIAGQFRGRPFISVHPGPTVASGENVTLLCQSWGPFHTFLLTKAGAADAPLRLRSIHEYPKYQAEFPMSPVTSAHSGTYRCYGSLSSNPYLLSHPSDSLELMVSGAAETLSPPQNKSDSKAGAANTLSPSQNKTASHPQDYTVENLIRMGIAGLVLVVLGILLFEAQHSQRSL
Procedure, shortened: as §1

[8] = target: T8, Human LILRA6 on transiently transfected HEK293-6E cells (human, UniProt Q6PI73 24-481); assay: as above
T8 construct: whole, on cells; also called hLILRA6
T8 sequence (Q6PI73 24-481): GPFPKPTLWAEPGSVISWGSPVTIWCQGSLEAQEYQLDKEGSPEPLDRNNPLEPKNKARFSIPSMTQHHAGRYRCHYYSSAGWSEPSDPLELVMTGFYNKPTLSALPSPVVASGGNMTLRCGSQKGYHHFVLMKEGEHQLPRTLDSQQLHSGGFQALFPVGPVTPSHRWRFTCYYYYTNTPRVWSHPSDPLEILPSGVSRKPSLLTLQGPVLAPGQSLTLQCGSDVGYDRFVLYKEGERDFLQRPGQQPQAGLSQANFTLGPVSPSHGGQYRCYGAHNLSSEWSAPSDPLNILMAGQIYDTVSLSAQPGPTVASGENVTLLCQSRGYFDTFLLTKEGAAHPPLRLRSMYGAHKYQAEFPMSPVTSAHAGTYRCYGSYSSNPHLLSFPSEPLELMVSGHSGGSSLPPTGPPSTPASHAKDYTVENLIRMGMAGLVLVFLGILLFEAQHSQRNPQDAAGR
Procedure, shortened: as §1

[9] = target: T1, Human LILRB1 on transiently transfected …; assay: as above; remark: listed apart in the source
Procedure, shortened: as §1

[10] = target: T9, Human LILRB3 on transiently transfected HEK293-6E cells (human, UniProt O75022 24-631); assay: as above
T9 construct: whole, on cells; also called hLILRB3
Procedure, shortened: as §1

[11] = target: T10, Recombinant human LILRB2 protein (ELISA antigen) (human, UniProt Q8N423 22-460); assay: ELISA, immobilized LILRB2-His; conditioned media of transient transfections
T10 construct: also called LILRB2-His; recombinant LILRB2
T10 sequence (Q8N423 other isoform, or with tags, fused parts or gaps limits assumed): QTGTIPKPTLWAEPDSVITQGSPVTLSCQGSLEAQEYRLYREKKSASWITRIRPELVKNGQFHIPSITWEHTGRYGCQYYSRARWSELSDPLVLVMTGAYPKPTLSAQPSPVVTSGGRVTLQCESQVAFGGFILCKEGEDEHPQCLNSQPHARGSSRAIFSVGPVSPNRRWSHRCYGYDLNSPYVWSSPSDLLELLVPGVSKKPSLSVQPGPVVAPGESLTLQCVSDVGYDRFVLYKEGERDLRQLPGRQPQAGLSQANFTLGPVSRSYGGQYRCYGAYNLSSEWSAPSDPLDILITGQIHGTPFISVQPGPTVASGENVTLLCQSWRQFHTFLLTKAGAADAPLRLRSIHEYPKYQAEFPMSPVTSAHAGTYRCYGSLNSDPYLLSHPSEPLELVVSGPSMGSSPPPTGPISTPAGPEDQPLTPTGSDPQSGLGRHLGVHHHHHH
Method: (§2) To confirm binding to human and cynomolgus LILRB2, antibodies in supernatants were evaluated for binding by enzyme-linked immunosorbent assay (ELISA). Recombinant LILRB2 proteins (human: SEQ ID NO: 48; cynomolgus) were diluted in PBS to 2 μg/mL and added to 384-well high-binding ELISA plates (Greiner Bio-One Microlon™) at 25 μL/well and incubated at 4° C. overnight. The plates were washed three times with Wash Buffer (0.05% Tween® 20 in PBS), using a microplate washer and then blocked with 90 μL/well of ELISA Blocking Buffer A (1% BSA in PBS) for 1 hour at room temperature (RT). After blocking, 25 μL/well of LILRB2 antibodies or isotype control were added to the plates and incubated for 1 hour at RT. After primary antibody binding, plates were washed three times with Wash Buffer using a microplate washer. Secondary detection antibody (HRP-goat anti-rabbit Fab fragment) was diluted to 1:3000 in assay diluent (1% BSA in PBS) and 25 μL/well was added to plates and incubated at RT protected from light for 1 hour. Following incubation, plates were washed four times with Wash Buffer, using a microplate washer. After removal of the final wash, 25 μL/well of 1-Step™ Ultra TMB-ELISA Substrate Solution (Thermo Fisher, No. 34028) was added and plates were incubated for 5-10 min at RT, protected from light. After development, the reaction was stopped by addition of 25 μL/well of 0.3 M HCl, and plates were read using an EnVision (Perkin Elmer) microplate reader at 450 nm. EC₅₀ values were calculated based on log concentration of the primary antibodies at optical density at 450 nm.
Twenty-five IgG4 variants were expressed in mammalian cell culture as a combinatorial library of the five light and five heavy chains. In addition, B2A-IgG4 was included as a transfection control. The conditioned media from these transient transfections were assayed for human IgG concentration. A plate-based ELISA (see Example 2) was performed in which LILRB2-His was immobilized, and binding of humanized mAb variants was detected via an anti-human IgG4 HRP-labeled secondary antibody. The parental rabbit/human chimera clone transfection served as the benchmark EC₅₀ positive control.

[12] = target: T10, Recombinant human LILRB2 protein (ELISA …); assay: ELISA, plate-coated recombinant human LILRB2
Method: as §2
Select humanized variant antibodies were purified and tested for their ability to bind human LILRB2 by ELISA, using the method described in Example 2, and binding to HEK293T cells expressing human LILRB2, using the method described in Example 4. Representative data are shown for IgG4 variants in Table 6.

T1 sequence (Q8NHL6 24-650): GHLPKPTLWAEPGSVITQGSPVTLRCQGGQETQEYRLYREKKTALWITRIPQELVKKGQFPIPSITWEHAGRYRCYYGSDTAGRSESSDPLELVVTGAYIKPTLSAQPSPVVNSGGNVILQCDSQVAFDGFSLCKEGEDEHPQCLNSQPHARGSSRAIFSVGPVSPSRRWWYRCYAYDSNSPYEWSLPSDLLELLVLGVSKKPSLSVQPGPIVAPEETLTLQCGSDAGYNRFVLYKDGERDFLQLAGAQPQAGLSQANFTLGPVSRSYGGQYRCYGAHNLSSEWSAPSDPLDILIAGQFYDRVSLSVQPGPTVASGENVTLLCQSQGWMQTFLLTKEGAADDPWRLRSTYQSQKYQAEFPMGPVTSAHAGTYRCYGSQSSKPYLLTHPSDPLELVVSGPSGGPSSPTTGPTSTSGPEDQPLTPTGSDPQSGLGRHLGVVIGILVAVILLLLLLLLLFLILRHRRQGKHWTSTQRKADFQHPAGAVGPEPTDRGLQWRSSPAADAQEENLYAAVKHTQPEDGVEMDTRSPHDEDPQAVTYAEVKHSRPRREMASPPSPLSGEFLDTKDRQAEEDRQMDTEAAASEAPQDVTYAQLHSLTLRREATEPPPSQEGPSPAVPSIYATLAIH

MFI [1]: 43 MFI
Bmax (MFI) [2]: 124 MFI
BMAX [gMFI] [3]: 104 gMFI
Bmax (MFI) [4]: 41.4 MFI
Bmax (MFI) [5]: 11300 MFI
Bmax (MFI) [6]: 147 MFI
Bmax (MFI) [7]: 837 MFI
Bmax (MFI) [8]: 211 MFI
Bmax (MFI) [9]: 41.9 MFI
Bmax (MFI) [10]: 163 MFI
B1: B2A-IgG1 (antibody)
heavy: not shown
light: DVVMTQTPSSVSAALGGTVTIKCQASQSIGSNLAWYQLKPGQRPKLLIYAAATLASGGSSRFKGSGSGTDFTLTISDLECADAATYYCQSYVSGSSDVAFGGGTEVVVKRTVAAPSVFIFPPSDEQLKSGTASVVCLLNNFYPREAKVQWKVDNALQSGNSQESVTEQDSKDSTYSLSSTLTLSKADYEKHKVYACEVTHQGLSSPVTKSFNRGEC
notes: Rabbit variable regions on human IgG1 / kappa constant regions; AF647-conjugated in some flow assays; also called B2A-IgG1 chimera; anti-LILRB2 B2A-IgG1

EC50 [11]: 2.74 ng/mL
EC50 [12]: 2.35 ng/mL
B2: B2A-IgG4 (antibody)
heavy: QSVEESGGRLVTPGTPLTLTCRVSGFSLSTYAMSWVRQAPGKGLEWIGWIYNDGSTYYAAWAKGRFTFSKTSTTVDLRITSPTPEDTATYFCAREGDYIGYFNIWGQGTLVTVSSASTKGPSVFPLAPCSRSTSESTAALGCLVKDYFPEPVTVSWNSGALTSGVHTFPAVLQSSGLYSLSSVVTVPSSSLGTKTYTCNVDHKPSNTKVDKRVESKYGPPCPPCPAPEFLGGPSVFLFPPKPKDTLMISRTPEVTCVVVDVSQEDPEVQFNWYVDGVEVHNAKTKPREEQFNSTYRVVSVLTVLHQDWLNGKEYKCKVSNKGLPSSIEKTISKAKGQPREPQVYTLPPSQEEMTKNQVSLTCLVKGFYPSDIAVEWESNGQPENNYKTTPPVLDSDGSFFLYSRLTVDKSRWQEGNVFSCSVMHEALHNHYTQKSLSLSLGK
light: B1 light
notes: Rabbit variable regions on human IgG4 / kappa constant regions; also called B2A-IgG4 chimera; Parent B2A-IgG4

Bmax (MFI) [2]: 129 MFI
BMAX [gMFI] [3]: 112 gMFI
Bmax (MFI) [4]: 40.3 MFI
Bmax (MFI) [5]: 11000 MFI
Bmax (MFI) [6]: 138 MFI
Bmax (MFI) [7]: 783 MFI
Bmax (MFI) [8]: 214 MFI
Bmax (MFI) [9]: 41.4 MFI
Bmax (MFI) [10]: 154 MFI
B3: B2H1-55 (antibody, V domains shown)
VH: EVQLLESGGGLVQPGTSLTLSCAASGFSLSTYAMSWVRQAPGKGLEWIGWIYNDGSTYYAAWAKGRFTISKDTSKTTLYLQITSLRAEDTATYFCAREGDYIGYFNIWGQGTLVTVSS
VL: DVVMTQTPSSVSAALGGTVTIKCQASQSIGSNLAWYQLKPGQRPKLLIYAAATLASGGSSRFKGSGSGTDFTLTISSLEPADAATYYCQSYVSGSSDVAFGGGTEVVVK
notes: Humanized variant, human IgG1 / kappa; also called humanized variant B2H1-55; humanized LILRB2 antibody B2H1-55
